Measured values as given in the Human Domainome abundance scans (Beltran et al. 2025).
± gives the uncertainty stated by the source.

Test: abundance fitness (aPCA) (normalised: wild type 0, dead -1); higher = more abundant; growth selection in yeast, the domain comes from the species named
Settings: Homo sapiens

| Substance | abundance fitness |
| --- | --- |
| SAFB-like transcription modulator E57L, Q9NWH9 | -0.049 ± 0.071 |
| SAFB-like transcription modulator E57M, Q9NWH9 | -0.164 ± 0.094 |
| SAFB-like transcription modulator E57Q, Q9NWH9 | -0.667 ± 0.25 |
| SAFB-like transcription modulator E57R, Q9NWH9 | 0.034 ± 0.06 |
| SAFB-like transcription modulator E57S, Q9NWH9 | -0.031 ± 0.056 |
| SAFB-like transcription modulator E57T, Q9NWH9 | -0.122 ± 0.079 |
| SAFB-like transcription modulator E57V, Q9NWH9 | -0.064 ± 0.063 |
| SAFB-like transcription modulator E57W, Q9NWH9 | -0.124 ± 0.059 |
| SAFB-like transcription modulator E57Y, Q9NWH9 | -0.319 ± 0.11 |
| SAFB-like transcription modulator E58A, Q9NWH9 | -0.026 ± 0.06 |
| SAFB-like transcription modulator E58C, Q9NWH9 | -0.113 ± 0.064 |
| SAFB-like transcription modulator E58D, Q9NWH9 | -0.444 ± 0.15 |
| SAFB-like transcription modulator E58F, Q9NWH9 | -0.105 ± 0.054 |
| SAFB-like transcription modulator E58G, Q9NWH9 | -0.021 ± 0.051 |
| SAFB-like transcription modulator E58H, Q9NWH9 | 0.147 ± 0.084 |
| SAFB-like transcription modulator E58K, Q9NWH9 | -0.134 ± 0.084 |
| SAFB-like transcription modulator E58L, Q9NWH9 | -0.036 ± 0.036 |
| SAFB-like transcription modulator E58M, Q9NWH9 | 0.008 ± 0.071 |
| SAFB-like transcription modulator E58N, Q9NWH9 | -0.068 ± 0.077 |
| SAFB-like transcription modulator E58P, Q9NWH9 | -0.867 ± 0.12 |
| SAFB-like transcription modulator E58Q, Q9NWH9 | -0.014 ± 0.077 |
| SAFB-like transcription modulator E58R, Q9NWH9 | 0.028 ± 0.034 |
| SAFB-like transcription modulator E58S, Q9NWH9 | 0.024 ± 0.053 |
| SAFB-like transcription modulator E58T, Q9NWH9 | -0.043 ± 0.067 |
| SAFB-like transcription modulator E58V, Q9NWH9 | -0.074 ± 0.06 |
| SAFB-like transcription modulator E58W, Q9NWH9 | -0.52 ± 0.076 |

| Substance | abundance fitness |
| --- | --- |
| SAFB-like transcription modulator E58Y, Q9NWH9 | -0.342 ± 0.076 |
| SAFB-like transcription modulator E59C, Q9NWH9 | -0.404 ± 0.037 |
| SAFB-like transcription modulator E59D, Q9NWH9 | -0.225 ± 0.087 |
| SAFB-like transcription modulator E59F, Q9NWH9 | -0.924 ± 0.07 |
| SAFB-like transcription modulator E59G, Q9NWH9 | -0.226 ± 0.044 |
| SAFB-like transcription modulator E59I, Q9NWH9 | -0.784 ± 0.1 |
| SAFB-like transcription modulator E59K, Q9NWH9 | -0.653 ± 0.13 |
| SAFB-like transcription modulator E59L, Q9NWH9 | -0.794 ± 0.041 |
| SAFB-like transcription modulator E59N, Q9NWH9 | -0.275 ± 0.056 |
| SAFB-like transcription modulator E59P, Q9NWH9 | -0.768 ± 0.05 |
| SAFB-like transcription modulator E59Q, Q9NWH9 | -0.336 ± 0.078 |
| SAFB-like transcription modulator E59R, Q9NWH9 | -0.532 ± 0.054 |
| SAFB-like transcription modulator E59T, Q9NWH9 | -0.323 ± 0.073 |
| SAFB-like transcription modulator E59V, Q9NWH9 | -0.459 ± 0.052 |
| SAFB-like transcription modulator E59W, Q9NWH9 | -1.02 ± 0.089 |
| SAFB-like transcription modulator E67A, Q9NWH9 | -0.197 ± 0.046 |
| SAFB-like transcription modulator E67C, Q9NWH9 | -0.252 ± 0.087 |
| SAFB-like transcription modulator E67D, Q9NWH9 | -0.107 ± 0.086 |
| SAFB-like transcription modulator E67F, Q9NWH9 | -0.041 ± 0.078 |
| SAFB-like transcription modulator E67G, Q9NWH9 | -0.198 ± 0.049 |
| SAFB-like transcription modulator E67H, Q9NWH9 | -0.107 ± 0.15 |
| SAFB-like transcription modulator E67I, Q9NWH9 | 0.017 ± 0.08 |
| SAFB-like transcription modulator E67K, Q9NWH9 | -0.225 ± 0.082 |
| SAFB-like transcription modulator E67L, Q9NWH9 | -0.134 ± 0.035 |
| SAFB-like transcription modulator E67M, Q9NWH9 | -0.308 ± 0.092 |
| SAFB-like transcription modulator E67N, Q9NWH9 | -0.002 ± 0.069 |

| Substance | abundance fitness |
| --- | --- |
| SAFB-like transcription modulator E67P, Q9NWH9 | -0.155 ± 0.089 |
| SAFB-like transcription modulator E67Q, Q9NWH9 | -0.35 ± 0.1 |
| SAFB-like transcription modulator E67S, Q9NWH9 | -0.084 ± 0.04 |
| SAFB-like transcription modulator E67T, Q9NWH9 | -0.099 ± 0.049 |
| SAFB-like transcription modulator E67V, Q9NWH9 | -0.042 ± 0.037 |
| SAFB-like transcription modulator E67W, Q9NWH9 | -0.27 ± 0.037 |
| SAFB-like transcription modulator E67Y, Q9NWH9 | -0.019 ± 0.11 |
| SAFB-like transcription modulator G19A, Q9NWH9 | -0.101 ± 0.09 |
| SAFB-like transcription modulator G19C, Q9NWH9 | -0.391 ± 0.19 |
| SAFB-like transcription modulator G19D, Q9NWH9 | -0.027 ± 0.078 |
| SAFB-like transcription modulator G19E, Q9NWH9 | -0.014 ± 0.086 |
| SAFB-like transcription modulator G19I, Q9NWH9 | 0.503 ± 0.23 |
| SAFB-like transcription modulator G19R, Q9NWH9 | -0.757 ± 0.2 |
| SAFB-like transcription modulator G19S, Q9NWH9 | -0.003 ± 0.064 |
| SAFB-like transcription modulator G19T, Q9NWH9 | -0.406 ± 0.34 |
| SAFB-like transcription modulator G19V, Q9NWH9 | 0.053 ± 0.072 |
| SAFB-like transcription modulator G19W, Q9NWH9 | -0.72 ± 0.35 |
| SAFB-like transcription modulator G19Y, Q9NWH9 | 0.212 ± 0.24 |
| SAFB-like transcription modulator G43C, Q9NWH9 | -0.464 ± 0.19 |
| SAFB-like transcription modulator G43D, Q9NWH9 | -0.712 ± 0.2 |
| SAFB-like transcription modulator G43V, Q9NWH9 | -0.601 ± 0.26 |
| SAFB-like transcription modulator G60A, Q9NWH9 | -0.317 ± 0.047 |
| SAFB-like transcription modulator G60C, Q9NWH9 | -0.258 ± 0.036 |
| SAFB-like transcription modulator G60D, Q9NWH9 | -0.171 ± 0.062 |
| SAFB-like transcription modulator G60E, Q9NWH9 | -0.347 ± 0.05 |
| SAFB-like transcription modulator G60F, Q9NWH9 | -0.584 ± 0.06 |

| Substance | abundance fitness |
| --- | --- |
| SAFB-like transcription modulator G60I, Q9NWH9 | -0.792 ± 0.08 |
| SAFB-like transcription modulator G60K, Q9NWH9 | -0.162 ± 0.052 |
| SAFB-like transcription modulator G60L, Q9NWH9 | -0.396 ± 0.036 |
| SAFB-like transcription modulator G60M, Q9NWH9 | -0.238 ± 0.038 |
| SAFB-like transcription modulator G60N, Q9NWH9 | -0.108 ± 0.04 |
| SAFB-like transcription modulator G60Q, Q9NWH9 | -0.181 ± 0.042 |
| SAFB-like transcription modulator G60R, Q9NWH9 | -0.238 ± 0.033 |
| SAFB-like transcription modulator G60S, Q9NWH9 | -0.308 ± 0.041 |
| SAFB-like transcription modulator G60V, Q9NWH9 | -0.515 ± 0.04 |
| SAFB-like transcription modulator G60W, Q9NWH9 | -0.658 ± 0.047 |
| SAFB-like transcription modulator G60Y, Q9NWH9 | -0.591 ± 0.07 |
| SAFB-like transcription modulator G61A, Q9NWH9 | -0.158 ± 0.049 |
| SAFB-like transcription modulator G61C, Q9NWH9 | -0.164 ± 0.064 |
| SAFB-like transcription modulator G61D, Q9NWH9 | -0.229 ± 0.056 |
| SAFB-like transcription modulator G61E, Q9NWH9 | -0.303 ± 0.064 |
| SAFB-like transcription modulator G61F, Q9NWH9 | -0.474 ± 0.072 |
| SAFB-like transcription modulator G61H, Q9NWH9 | -0.16 ± 0.049 |
| SAFB-like transcription modulator G61I, Q9NWH9 | -0.415 ± 0.098 |
| SAFB-like transcription modulator G61K, Q9NWH9 | -0.18 ± 0.06 |
| SAFB-like transcription modulator G61L, Q9NWH9 | -0.098 ± 0.043 |
| SAFB-like transcription modulator G61M, Q9NWH9 | -0.135 ± 0.06 |
| SAFB-like transcription modulator G61N, Q9NWH9 | -0.208 ± 0.083 |
| SAFB-like transcription modulator G61P, Q9NWH9 | -0.31 ± 0.062 |
| SAFB-like transcription modulator G61Q, Q9NWH9 | -0.141 ± 0.066 |
| SAFB-like transcription modulator G61R, Q9NWH9 | -0.227 ± 0.042 |
